Assay results as given in the supplement of paper PMC10065799, “High-throughput profiling of sequence recognition by tyrosine kinases and SH2 domains using bacterial peptide display” (eLife, 2023).

Columns and labels:
AncSZ = assay: phosphorylation enrichment, bacterial display (enrichment ratio); higher = better substrate or ligand; peptides without Tyr show the background
EPHB1 = EPHB1 (UniProt P54762); assay: as above
EPHB2 = EPHB2 (UniProt P29323); assay: as above
FGFR1 = FGFR1 (UniProt P11362); assay: as above
FGFR3 = FGFR3 (UniProt P22607); assay: as above
Fer (mouse) = assay: as above
Fes = Fes (UniProt P07332); assay: as above
Fyn = Fyn (UniProt P06241); assay: as above
Hck = Hck (UniProt P08631); assay: as above
Jak2 = Jak2 (UniProt O60674); assay: as above
MERTK = MERTK (UniProt Q12866); assay: as above
c-Abl (mouse) = assay: as above
c-Src = assay: as above
Grb2 SH2 = Grb2 SH2 (UniProt P62993); assay: SH2 binding enrichment of the phosphorylated peptide, bacterial display (enrichment ratio); higher = better substrate or ligand; peptides without Tyr show the background
SHP2-C SH2 = assay: as above
c-Src SH2 = assay: as above
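Throughout, for SH2 binding enrichment of the phosphorylated peptide, bacterial display: peptide library displayed on the E. coli surface as eCPX fusions, selected cells deep-sequenced, score is each peptide's frequency after selection divided by its frequency in the input.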
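Throughout, for phosphorylation enrichment, bacterial display: 11-residue human phosphosite peptides and single-mutation variants displayed on the E. coli surface, counted by deep sequencing, each peptide's frequency after selection divided by its frequency in the unselected input library; frequency after pTyr selection over input frequency; kinase dosed for 20-30% of maximal phosphorylation in three min.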

Sequence of MERTK (Q12866 whole entry, looked up): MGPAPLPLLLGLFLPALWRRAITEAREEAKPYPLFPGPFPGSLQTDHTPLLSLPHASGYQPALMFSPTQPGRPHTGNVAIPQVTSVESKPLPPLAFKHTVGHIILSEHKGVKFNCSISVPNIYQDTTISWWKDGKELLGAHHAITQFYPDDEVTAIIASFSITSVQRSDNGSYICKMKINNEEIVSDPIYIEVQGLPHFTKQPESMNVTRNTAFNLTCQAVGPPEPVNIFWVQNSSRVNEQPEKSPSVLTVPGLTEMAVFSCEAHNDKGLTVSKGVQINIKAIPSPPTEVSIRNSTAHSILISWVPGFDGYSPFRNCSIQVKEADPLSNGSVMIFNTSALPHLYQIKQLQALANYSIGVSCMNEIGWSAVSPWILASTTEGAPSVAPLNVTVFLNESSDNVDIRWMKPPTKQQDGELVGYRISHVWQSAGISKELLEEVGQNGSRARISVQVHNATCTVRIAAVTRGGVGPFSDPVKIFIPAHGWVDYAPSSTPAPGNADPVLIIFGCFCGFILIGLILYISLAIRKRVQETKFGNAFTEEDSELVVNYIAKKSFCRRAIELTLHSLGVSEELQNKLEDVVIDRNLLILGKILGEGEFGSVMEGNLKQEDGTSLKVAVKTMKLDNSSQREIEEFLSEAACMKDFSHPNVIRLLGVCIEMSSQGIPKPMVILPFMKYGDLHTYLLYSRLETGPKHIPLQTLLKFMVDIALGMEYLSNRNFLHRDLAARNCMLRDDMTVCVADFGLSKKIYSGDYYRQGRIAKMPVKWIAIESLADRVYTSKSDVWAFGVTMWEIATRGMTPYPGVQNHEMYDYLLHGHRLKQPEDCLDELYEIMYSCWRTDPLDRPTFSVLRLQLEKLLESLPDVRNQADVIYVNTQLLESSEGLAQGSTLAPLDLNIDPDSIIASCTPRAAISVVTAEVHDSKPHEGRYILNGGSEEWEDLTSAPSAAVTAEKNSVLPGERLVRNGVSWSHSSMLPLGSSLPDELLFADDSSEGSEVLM
Sequence of Fyn (P06241 whole entry, looked up): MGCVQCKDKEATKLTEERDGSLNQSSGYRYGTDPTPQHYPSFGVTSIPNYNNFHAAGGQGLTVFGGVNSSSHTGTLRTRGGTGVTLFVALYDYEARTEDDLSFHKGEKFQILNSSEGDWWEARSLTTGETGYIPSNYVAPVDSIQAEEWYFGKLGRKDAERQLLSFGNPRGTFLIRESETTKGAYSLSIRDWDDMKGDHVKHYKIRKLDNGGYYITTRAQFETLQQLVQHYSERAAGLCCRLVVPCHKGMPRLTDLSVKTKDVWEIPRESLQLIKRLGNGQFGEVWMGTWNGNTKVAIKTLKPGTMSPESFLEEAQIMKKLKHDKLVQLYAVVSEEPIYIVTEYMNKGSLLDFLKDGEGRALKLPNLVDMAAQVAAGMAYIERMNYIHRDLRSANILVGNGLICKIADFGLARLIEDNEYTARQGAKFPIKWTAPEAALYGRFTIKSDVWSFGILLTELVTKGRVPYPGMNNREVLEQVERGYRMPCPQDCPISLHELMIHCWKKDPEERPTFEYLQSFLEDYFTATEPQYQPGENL
Sequence of Hck (P08631 whole entry, looked up): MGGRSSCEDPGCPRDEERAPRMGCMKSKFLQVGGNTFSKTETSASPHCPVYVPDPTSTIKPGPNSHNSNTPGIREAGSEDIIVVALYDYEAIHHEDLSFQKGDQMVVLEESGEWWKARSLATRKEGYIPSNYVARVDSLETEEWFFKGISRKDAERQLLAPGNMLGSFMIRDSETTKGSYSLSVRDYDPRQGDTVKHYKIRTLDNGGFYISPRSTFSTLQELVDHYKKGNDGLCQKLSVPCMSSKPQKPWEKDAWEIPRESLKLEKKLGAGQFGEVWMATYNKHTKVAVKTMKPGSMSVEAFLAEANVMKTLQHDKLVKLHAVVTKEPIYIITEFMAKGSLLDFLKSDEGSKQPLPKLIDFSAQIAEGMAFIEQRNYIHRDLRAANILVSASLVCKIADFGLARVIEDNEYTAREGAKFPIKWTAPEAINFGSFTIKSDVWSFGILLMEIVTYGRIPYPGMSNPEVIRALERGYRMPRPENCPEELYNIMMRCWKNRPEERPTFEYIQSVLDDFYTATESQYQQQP
Sequence of FGFR3 (P22607 whole entry, looked up): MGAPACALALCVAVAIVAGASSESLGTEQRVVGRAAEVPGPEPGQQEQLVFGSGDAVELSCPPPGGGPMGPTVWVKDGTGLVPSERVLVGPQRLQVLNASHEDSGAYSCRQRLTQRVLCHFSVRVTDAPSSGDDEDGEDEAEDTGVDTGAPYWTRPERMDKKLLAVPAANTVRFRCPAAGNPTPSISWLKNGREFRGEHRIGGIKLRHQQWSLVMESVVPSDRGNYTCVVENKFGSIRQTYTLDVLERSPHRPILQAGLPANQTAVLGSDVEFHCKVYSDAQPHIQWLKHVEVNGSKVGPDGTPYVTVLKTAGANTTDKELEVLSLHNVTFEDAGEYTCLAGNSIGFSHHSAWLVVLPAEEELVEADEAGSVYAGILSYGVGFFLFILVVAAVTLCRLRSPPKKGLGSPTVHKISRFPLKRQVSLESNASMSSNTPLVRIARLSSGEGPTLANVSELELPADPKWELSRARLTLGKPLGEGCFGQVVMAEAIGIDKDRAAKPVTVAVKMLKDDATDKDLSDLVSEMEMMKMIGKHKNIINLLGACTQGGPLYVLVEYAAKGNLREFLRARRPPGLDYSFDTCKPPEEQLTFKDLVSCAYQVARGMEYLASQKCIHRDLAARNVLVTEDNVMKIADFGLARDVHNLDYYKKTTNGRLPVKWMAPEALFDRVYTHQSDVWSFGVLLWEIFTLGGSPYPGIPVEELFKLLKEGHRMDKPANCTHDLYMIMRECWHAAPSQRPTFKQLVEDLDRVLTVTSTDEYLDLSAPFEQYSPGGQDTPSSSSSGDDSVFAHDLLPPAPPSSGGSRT
Sequence of Grb2 SH2 (P62993 whole entry, looked up): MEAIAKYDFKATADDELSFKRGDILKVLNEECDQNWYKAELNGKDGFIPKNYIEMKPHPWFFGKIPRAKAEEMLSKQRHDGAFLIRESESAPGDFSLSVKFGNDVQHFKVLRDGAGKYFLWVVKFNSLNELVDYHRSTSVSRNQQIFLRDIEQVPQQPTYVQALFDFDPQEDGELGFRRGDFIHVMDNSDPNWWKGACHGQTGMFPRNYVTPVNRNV
Sequence of EPHB1 (P54762 whole entry, looked up): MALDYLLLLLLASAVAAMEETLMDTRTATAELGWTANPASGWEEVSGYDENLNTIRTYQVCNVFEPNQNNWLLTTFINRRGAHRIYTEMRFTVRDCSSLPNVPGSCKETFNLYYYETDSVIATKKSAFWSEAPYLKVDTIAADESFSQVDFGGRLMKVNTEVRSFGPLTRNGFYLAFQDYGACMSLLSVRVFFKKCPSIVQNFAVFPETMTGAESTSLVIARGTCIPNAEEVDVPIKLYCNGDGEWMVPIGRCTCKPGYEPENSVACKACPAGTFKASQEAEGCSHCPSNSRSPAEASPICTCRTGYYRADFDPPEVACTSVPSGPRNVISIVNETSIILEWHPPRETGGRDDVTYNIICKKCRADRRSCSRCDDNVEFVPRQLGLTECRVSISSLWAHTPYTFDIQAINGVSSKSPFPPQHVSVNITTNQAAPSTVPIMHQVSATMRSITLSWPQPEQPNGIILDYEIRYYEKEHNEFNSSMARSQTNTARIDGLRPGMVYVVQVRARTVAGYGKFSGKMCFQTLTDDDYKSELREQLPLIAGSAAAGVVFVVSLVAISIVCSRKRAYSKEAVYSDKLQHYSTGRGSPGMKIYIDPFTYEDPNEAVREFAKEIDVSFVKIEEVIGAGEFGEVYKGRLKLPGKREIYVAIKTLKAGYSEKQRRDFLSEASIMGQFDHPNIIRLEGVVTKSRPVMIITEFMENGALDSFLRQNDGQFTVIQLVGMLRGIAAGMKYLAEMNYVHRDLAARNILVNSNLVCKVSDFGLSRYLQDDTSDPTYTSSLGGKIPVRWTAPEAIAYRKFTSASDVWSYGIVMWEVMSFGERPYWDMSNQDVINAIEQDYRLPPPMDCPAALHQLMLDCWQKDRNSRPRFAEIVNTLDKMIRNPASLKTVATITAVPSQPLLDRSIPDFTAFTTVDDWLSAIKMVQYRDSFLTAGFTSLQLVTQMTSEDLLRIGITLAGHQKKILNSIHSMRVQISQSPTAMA
Sequence of Fes (P07332 whole entry, looked up): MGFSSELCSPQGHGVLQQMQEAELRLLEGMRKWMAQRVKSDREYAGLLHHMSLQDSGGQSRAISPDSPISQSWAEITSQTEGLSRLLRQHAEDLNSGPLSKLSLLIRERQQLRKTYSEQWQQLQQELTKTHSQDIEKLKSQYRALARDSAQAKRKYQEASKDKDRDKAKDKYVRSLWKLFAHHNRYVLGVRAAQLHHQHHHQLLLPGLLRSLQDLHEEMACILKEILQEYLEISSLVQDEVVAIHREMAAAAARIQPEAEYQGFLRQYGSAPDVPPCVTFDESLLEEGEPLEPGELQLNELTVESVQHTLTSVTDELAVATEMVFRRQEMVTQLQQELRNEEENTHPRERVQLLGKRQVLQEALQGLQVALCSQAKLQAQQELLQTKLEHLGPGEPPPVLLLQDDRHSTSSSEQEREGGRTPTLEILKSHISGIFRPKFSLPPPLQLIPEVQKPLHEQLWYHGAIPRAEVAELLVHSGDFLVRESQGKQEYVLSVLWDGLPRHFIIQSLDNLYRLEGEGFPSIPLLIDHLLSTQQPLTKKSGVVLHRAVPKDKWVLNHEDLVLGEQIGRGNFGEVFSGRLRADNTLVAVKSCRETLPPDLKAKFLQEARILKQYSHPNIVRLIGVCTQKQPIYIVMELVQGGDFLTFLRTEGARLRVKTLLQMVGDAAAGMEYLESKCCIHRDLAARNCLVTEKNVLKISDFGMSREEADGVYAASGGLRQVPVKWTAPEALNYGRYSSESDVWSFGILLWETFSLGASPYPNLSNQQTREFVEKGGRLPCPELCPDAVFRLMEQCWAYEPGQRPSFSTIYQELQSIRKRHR

Sequence | phosphorylation enrichment (AncSZ) | phosphorylation enrichment (EPHB1) | phosphorylation enrichment (EPHB2) | phosphorylation enrichment (FGFR1) | phosphorylation enrichment (FGFR3) | phosphorylation enrichment (Fer (mouse)) | phosphorylation enrichment (Fes) | phosphorylation enrichment (Fyn) | phosphorylation enrichment (Hck) | phosphorylation enrichment (Jak2) | phosphorylation enrichment (MERTK) | phosphorylation enrichment (c-Abl (mouse)) | phosphorylation enrichment (c-Src) | SH2 binding enrichment (Grb2 SH2) | SH2 binding enrichment (SHP2-C SH2) | SH2 binding enrichment (c-Src SH2)
MGRVKYGAYIN [GLB1_Y485_N484K] | 0.506 | 0.282 | 0.408 | 0.374 | 0.47 | 0.416 | 0.569 | 0.472 | 0.401 | 0.447 | 0.358 | 0.461 | 0.378 | 2.27 | 1.51 | 1.38
MKMISYETLIA [DOCK10_Y1350_T1347M] | 0.784 | 0.659 | 0.566 | 0.634 | 0.629 | 0.467 | 0.948 | 0.468 | 0.581 | 0.888 | 0.485 | 0.65 | 0.421 | 0.752 | 1.24 | 2
MSFDRYMAICH [OR2A5_Y123_YF] | 0.897 | 0.868 | 0.669 | 0.567 | 0.68 | 0.557 | 1.08 | 0.494 | 0.527 | 0.878 | 0.498 | 0.69 | 0.497 | 0.829 | 0.688 | 0.859
MSPPGYKLLTG [GJA1_Y286_V289L] | 0.625 | 0.542 | 0.891 | 0.515 | 0.599 | 0.474 | 0.756 | 0.454 | 0.405 | 0.669 | 0.465 | 0.731 | 0.503 | 0.828 | 0.67 | 0.488
MSSLYYANTLF [HOXB7_Y6] | 1.32 | 10.7 | 12.8 | 6.15 | 5.82 | 5.33 | 1.01 | 4.32 | 5.94 | 3.08 | 10.8 | 8.46 | 4.4 | 2.87 | 0.739 | 1.24
MSYDRYMAVCH [OR2A5_Y123_I126V] | 0.867 | 0.879 | 0.751 | 0.438 | 0.57 | 0.595 | 0.878 | 0.475 | 0.507 | 0.891 | 0.44 | 0.509 | 0.464 | 0.779 | 0.687 | 0.993
MVSLFYGTALF [OR10C1_Y251] | 1.32 | 0.757 | 0.708 | 0.51 | 0.906 | 1.18 | 1.32 | 2.21 | 1.45 | 1.2 | 0.707 | 1.21 | 2.44 | 0.865 | 0.778 | 0.431
